The source of these data is patent publication US20240270839A1 (ELPISCIENCE SUZHOU BIOPHARMA, published 2024).

Positions count from the first letter of the chain named.

For assay [1], the target named is human CLDN18.2 (hCLDN18.2), expressed on cells (human). The assay is described as follows: cell-based or functional assay.
For assay [2], the target named is T1, human CLDN18.2 (hCLDN18.2), expressed on cells (human).
T1 construct: the constructs in the cell lines are not described; also called Claudin18.2; HEK293-hCLDN18.2
The assay is described as follows: FACS, MFC cells over-expressing hCLDN18.2.

In assay [3] the target is T1, human CLDN18.2 (hCLDN18.2), expressed …. The assay is described as follows: FACS, SNU620 cells over-expressing hCLDN18.2. (In general: In flow cytometry, cells or beads pass a laser one at a time.)
For assay [4] the target is unchanged. In words: cell-based or functional assay. The source holds these as a separate data set.

B1: hu22E12.H1L2-ADE (antibody, human IgG1)
heavy: QVQLVQSGAEVKKPGASVKVSCKASGYTFTNWVHWVRQAPGQGLEWMGEINPTNARSNYNEKFKKRVTMTRDTSTSTVYMELSSLRSEDTAVYYCARIYYGNSFAHWGQGTLVTVSSASTKGPSVFPLAPSSKSTSGGTAALGCLVKDYFPEPVTVSWNSGALTSGVHTFPAVLQSSGLYSLSSVVTVPSSSLGTQTYICNVNHKPSNTKVDKKVEPKSCDKTHTCPPCPAPELLAGPDVFLFPPKPKDTLMISRTPEVTCVVVDVSHEDPEVKFNWYVDGVEVHNAKTKPREEQYNSTYRVVSVLTVLHQDWLNGKEYKCKVSNKALPAPEEKTISKAKGQPREPQVYTLPPSREEMTKNQVSLTCLVKGFYPSDIAVEWESNGQPENNYKTTPPVLDSDGSFFLYSKLTVDKSRWQQGNVFSCSVMHEALHNHYTQKSLSLSPGK
VL: DIVMTQSPDSLAVSLGERATINCKSSQSLLNAGNQKNYLTWYQQKPGQPPKLLIYWSSTRESGVPDRFSGSGSGTDFTLTISSLQAEDVAVYHCQNNYYYPLTFGGGTKLEIK
B1: in assay [1], the “ADCC EC50 (nM), NK-CD16a effector cells” value is 0.00765 nM.

B2: hu22E12.H1L2-DLE (antibody, human IgG1)
heavy: B1 heavy with A236G, A330L
VL: B1 VL
On to B2, for which the “ADCC EC50 (nM), NK-CD16a effector cells” value in assay [1] turned out to be 0.00503 nM.

B3: hu22E12.H1L2-VLPLL (antibody, human IgG1)
heavy: B1 heavy with L235V, A236G, D239S, F243L, R292P, Y300L, E332I, P396L
VL: B1 VL
Turning to B3, the “ADCC EC50 (nM), NK-CD16a effector cells” value in assay [1] stood at 0.00997 nM.

B4: hu22E12.H1L2-DE (antibody, human IgG1)
heavy: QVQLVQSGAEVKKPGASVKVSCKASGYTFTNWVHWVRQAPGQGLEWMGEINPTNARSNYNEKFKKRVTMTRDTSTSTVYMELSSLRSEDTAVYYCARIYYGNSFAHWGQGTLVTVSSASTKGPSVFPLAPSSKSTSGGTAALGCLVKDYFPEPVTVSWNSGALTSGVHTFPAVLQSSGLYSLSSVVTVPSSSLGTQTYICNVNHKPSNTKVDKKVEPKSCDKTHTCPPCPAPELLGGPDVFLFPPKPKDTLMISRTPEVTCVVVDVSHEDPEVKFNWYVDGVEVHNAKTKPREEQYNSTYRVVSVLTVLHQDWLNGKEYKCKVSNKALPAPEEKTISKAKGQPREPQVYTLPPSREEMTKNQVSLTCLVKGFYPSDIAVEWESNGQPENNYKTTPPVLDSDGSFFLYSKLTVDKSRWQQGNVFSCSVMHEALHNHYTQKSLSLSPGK
VL: B1 VL
Take B4: the “ADCC EC50 (nM), NK-CD16a effector cells” value in assay [1] worked out at 0.00637 nM.

B5: hu22E12.H2L2 (antibody, V domains shown)
VH: QVQLVQSGAEVKKPGASVKVSCKASGYTFTNWVHWVRQAPGQGLEWMGEINPTNARSNYNEKFKKRVTMTRDRSTSTVYMELSSLRSEDTAVYFCAGIYYGNSFAHWGQGTLVTVSS
VL: B1 VL
notes: humanized 22E12
A word on the EC50: it is the concentration that produces a half-maximal response. Lower therefore signals an effect from little substance. Molecule B5 came in with an EC50 in assay [2] of 0.586 nM.

B6: hu22E12.H3L3 (antibody, V domains shown)
VH: B5 VH with K12V, R37I, R71L
VL: B1 VL with A19V, I21L, L84V
notes: humanized 22E12
For the molecule B6, in assay [2], the EC50 came out at 1.19 nM.

B7: hu22E12.H4L2 (antibody, V domains shown)
VH: B5 VH with K12V, V20L, R37I, M47I, M69L, R71L
VL: B1 VL
notes: humanized 22E12
In assay [2], B7 came in with an EC50 of 1.05 nM.

B8: hu22E12.H3L1 (antibody, V domains shown)
VH: B5 VH with K12V, R37I, R71L
VL: B1 VL with H93Y
notes: humanized 22E12
Molecule B8 displayed a 50% effective concentration (EC50) in assay [2] of 1.23 nM.

B9: hu22E12.H4L1 (antibody, V domains shown)
VH: B5 VH with K12V, V20L, R37I, M47I, M69L, R71L
VL: B1 VL with H93Y
notes: humanized 22E12
As for B9, in assay [2], the EC50 was determined as 1.16 nM.

B10: hu22E12.H1L1 (antibody, V domains shown)
VH: B5 VH with R73T, F94Y, G97R
VL: B1 VL with H93Y
notes: humanized 22E12
On to B10, for which the EC50 in assay [2] amounted to 1.31 nM.

B11: hu22E12.H2L1 (antibody, V domains shown)
VH: B5 VH
VL: B1 VL with H93Y
notes: humanized 22E12
In the case of B11, the EC50 in assay [2] is 0.656 nM.

B12: hu22E12.H4L3 (antibody, V domains shown)
VH: B5 VH with K12V, V20L, R37I, M47I, M69L, R71L
VL: B1 VL with A19V, I21L, L84V
notes: humanized 22E12
As to B12, in assay [2], the EC50 turned out to be 2 nM.

B13: hu22E12.H3L2 (antibody, V domains shown)
VH: B5 VH with K12V, R37I, R71L
VL: B1 VL
notes: humanized 22E12
B13 returned an EC50 in assay [2] of 1.25 nM.

B14: hu22E12.H1L3 (antibody, V domains shown)
VH: B5 VH with R73T, F94Y, G97R
VL: B1 VL with A19V, I21L, L84V
notes: humanized 22E12
In the case of B14, in assay [2], the response was half-maximal at 1.08 nM (EC50).

B15: hu22E12.H2L3 (antibody, V domains shown)
VH: B5 VH
VL: B1 VL with A19V, I21L, L84V
notes: humanized 22E12
Molecule B15 had an EC50 in assay [2] of 0.642 nM.

B16: hu22E12.H1L2 (antibody, V domains shown)
VH: B5 VH with R73T, F94Y, G97R
VL: B1 VL
notes: humanized 22E12
Consider B16, for which the “ADCC EC50 (nM), NK-CD16a effector cells” value in assay [1] was 0.144 nM. The EC50 in assay [2] was determined as 1.32 nM.

B17: hu35B4.H2L2 (antibody, V domains shown)
VH: EVQLLESGGGLVQPGGSLRLSCAASGFTLSSYALSWVRQAPGKGLEWVSYISNLGGSTFYPDTVKGRFTISRDNSKNTLYLQMNSLRAEDTAVYYCATHLYNYDAFASWGQGTLVTVSS
VL: DIQLTQSPSFLSASVGDRVTITCRASSSVNYIHWYQQKPGKAPKALIYATSNLASGVPSRFSGSGSGTEYTLTISSLQPEDFATYYCQQWNSNPLTFGQGTKLEIK
notes: humanized 35B4
B17 came in with an EC50 in assay [3] of 0.439 nM.

B18: hu35B4.H2L1 (antibody, V domains shown)
VH: B17 VH
VL: B17 VL with A45L, Y70F
notes: humanized 35B4
Regarding B18, it took 0.355 nM to reach a half-maximal effect in assay [3] (EC50).

B19: hu35B4.H1L4 (antibody, V domains shown)
VH: B17 VH with T98K
VL: B17 VL with I21M, A42S, L77V
notes: humanized 35B4
On to B19, for which, in assay [3], the midpoint of the response, the EC50, lay at 0.474 nM.

B20: hu35B4.H2L4 (antibody, V domains shown)
VH: B17 VH
VL: B17 VL with I21M, A42S, L77V
notes: humanized 35B4
With B20, in assay [3], a half-maximal effect (EC50) was put at 0.367 nM.

B21: hu35B4.H3L4 (antibody, V domains shown)
VH: B17 VH with S49A
VL: B17 VL with I21M, A42S, L77V
notes: humanized 35B4
On to B21, for which the response in assay [3] was half-maximal at 0.35 nM (EC50).

B22: hu35B4.H3L1 (antibody, V domains shown)
VH: B17 VH with S49A
VL: B17 VL with A45L, Y70F
notes: humanized 35B4
As to B22, the EC50 in assay [3] came out at 0.258 nM.

B23: hu35B4.H3L3 (antibody, V domains shown)
VH: B17 VH with S49A
VL: B17 VL with A42S
notes: humanized 35B4
As to B23, in assay [3], it took 0.319 nM to reach a half-maximal effect (EC50).

B24: hu35B4.H1L1 (antibody, V domains shown)
VH: B17 VH with T98K
VL: B17 VL with A45L, Y70F
notes: humanized 35B4
B24 registered a concentration giving a half-maximal response (EC50) in assay [3] of 0.525 nM.

B25: hu35B4.H3L2 (antibody, V domains shown)
VH: B17 VH with S49A
VL: B17 VL
notes: humanized 35B4
B25 returned an EC50 in assay [3] of 0.297 nM.

B26: hu35B4.H1L3 (antibody, V domains shown)
VH: B17 VH with T98K
VL: B17 VL with A42S
notes: humanized 35B4
Regarding B26, it took 0.382 nM to reach a half-maximal effect in assay [3] (EC50).

B27: hu35B4.H2L3 (antibody, V domains shown)
VH: B17 VH
VL: B17 VL with A42S
notes: humanized 35B4
With B27, the EC50 in assay [3] is 0.413 nM.

B28: ch99H8 (antibody, V domains shown)
VH: QVQLQQSGPELVKPGASVKLSCKASGYSFTNFDINWVKQRPGQGLQWIGRLYPRDGTTTYNEKFKGKASLTVDTSSTTSYMDLHSLTSEDSAVYFCVRGNYGNSFAYWGQGTLVTVSA
VL: DIVMTQSPSSLTVTAREKVIMNCKSSQSLFNSGNQKNYLTWYQQKPGQSPKLLIYWASTRQSGVPDRFTGSGSGTDFTLTISTVQAEDLAVYFCQNGFSFPYTFGGGTKLEMN
Regarding B28, the “PBMC VS NUGC4 ADCC (EC50 nM)” value in assay [4] was 3.31 nM.

B29: ch60F11 (antibody, V domains shown)
VH: QVQLQQPGAELVKPGASVKLSCKASGYTFTSYWMHWVKQRPGQGLEWIGMIHPNSGSTNYNEKFKSKATLTVDKSSSTAYMQLSSLTSEDSAVYYCARMGLGNAMDYWGQGTSVTVSS
VL: DIVMTQSPSSLTVTAGEKVTLSCKSSQSLLNSGNQRNYLTWYQQKPGQPPKLLIYWASTRESGVPDRFTGSGSGTDFTLTISSVQAEDLAVYYCQNAYSYPLTFGAGTKLELK
As for B29, the “PBMC VS NUGC4 ADCC (EC50 nM)” value in assay [4] is 8.69 nM.

B30: ch97A9 (antibody, V domains shown)
VH: QVQLQQSGPELVKPGASMKLSCKASGYSFTRNDINWVKQRPGQGLEWIGLSYPRDGTTQYNGKFKGKATLTVDTSSSTAYMELRSLTSEDSAVYFCARGYYGNSFAYWGQGTLVTVSA
VL: B29 VL with L21M, R36K, D76Y, Y93F, A97D, S99Y, Y100F, L102Y, A106G, L112I
Regarding B30, the “PBMC VS NUGC4 ADCC (EC50 nM)” value in assay [4] was determined as 6.93 nM.

B31: ch33G12 (antibody, V domains shown)
VH: EVKLVESGGGLVQPGGSLKLSCAASGFTFSRYAMSWVRQTPEKRLEWVAYISIGGTTYYPDTIKGRFTISRDNAKNTLYLQMSSLKSEDTAMYYCTRHYYGHDVMDYWGQGTSVTVSS
VL: QIVLSQSPTILSASPGEKVTMTCRATSSVSYMHWFQQKPGSSPKPWIYATSNLASGVPARFSGSGSGTSYSLTISRVEAEDAATYYCQQWSRNPLTFGAGTKLELK
For B31, the “PBMC VS NUGC4 ADCC (EC50 nM)” value in assay [4] stood at 0.458 nM.
